Results taken from publication PMC314469, “Protein Interaction Networks by Proteome Peptide Scanning” (PLoS Biology, 2004).

T1: Abp1 SH3 (ABP1_YEAST), P15891
T1 chain: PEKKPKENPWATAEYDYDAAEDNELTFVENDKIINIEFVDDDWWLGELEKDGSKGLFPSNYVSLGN


Biological target: T1, Abp1 SH3 (ABP1_YEAST), P15891
Assay: SPOT array

normalised SPOT signal, Boehringer light units (BLU); mean over the file's lines of this peptide	Binder
79.6	LNNLLAPPLSPTKP [YDR425W 249-262]
60	LTSGGSLPVSPRP [YOL061W 323-335]
105	LVFELDENLKPSKP [YKL152C 212-225]
1040	LSKNWELPQRLKP [YOL028C 50-62]
117	MDTMANILYYPQKP [YOR151C 789-802]
950	LYEQFRNPLRSRP [YDR389W 229-241]
59.6	LVSIENAPVSLRP [YGR031W 172-184]
2660	MFARLANPAHFKP [YOR226C 1-13]
144	LNLIGRRSASPYRP [YDL033C 6-19]
97.9	LNLQHQLEYWPHRP [YLR436C 877-890]
29.7	LWQRKKLGEAPIKP [YLR129W 775-788]
150	LTEITKLPNITRP [YLR152C 193-205]
450	LQKKNDRPSPLKP [YKL101W 858-870]
137	LVDPKVDPILLRP [YBL069W 153-165]
382	LSKVRGRPMYPRP [YBR083W 422-434]
67.6	LQSQFFDSMSPVRP [YGL003C 218-231]
156	LNVSAPVVADPTRP [YNR014W 72-85]
68	MEVGGVRNYVPQKP [YKL095W 108-121]
25.4	LQPQNQAPLEPLKP [YIR006C 225-238]
57.7	LYPQGYDPTDPSRP [YDR093W 1465-1478]

normalised SPOT signal, Boehringer light units (BLU); mean over the file's lines of this peptide	Binder
153	LPQDYYDPSFMRP [YIL108W 388-400]
854	LSLNKAFEKVPRRP [YNL068C 392-405]
184	MEEPFIWPEEPRP [YDR405W 164-176]
40.3	MDDFVTPPDEVKP [YBR023C 712-724]
130	LNDPTATPFTSRP [YNL091W 1210-1222]
322	LWALLQSGRLPQRP [YDR147W 440-453]
171	LNALNVNSHAPTKP [YOR059C 245-258]
75.9	LSRKESKFGTPEKP [YBL052C 441-454]
524	LSQLKRFERSPGRP [YFL007W 20-33]
631	LTNLIRNPRFSKP [YHR168W 311-323]
104	LTLWSQPPDVLKP [YLL031C 923-935]
2480	MARGSHFPILNRP [YNL013C 89-101]
119	MAKEDTGVTAPKKP [YOR086C 1-14]
171	LSTVNPAPANRKP [YJL005W 199-211]
144	LRQEYSFSLDPDRP [YPR107C 19-32]
66	LQELKFSPVINKP [YLR022C 137-149]
32.6	LSKKENKVGSPEKP [YOR244W 327-340]
30	LWTNDDYLQQPARP [YER136W 199-212]
48.4	LWQYVTDPSYKKP [YBR241C 284-296]
120	LWSWVLGPLLSRP [YOL110W 177-189]

normalised SPOT signal, Boehringer light units (BLU); mean over the file's lines of this peptide	Binder
74.4	LQEDLHDPLEFKP [YKL105C 259-271]
93.7	LVTPLAGGVTPMKP [YAL054C 478-491]
109	LYALVLKPVGKKP [YOR109W 19-31]
50.6	LNDSMFFPYPFKP [YGL131C 434-446]
100	LTFANVSFSYPSRP [YKL209C 357-370]
40.5	LSYYLAISTNPGRP [YOL003C 52-65]
68.5	LTSLPVPPPPVRP [YDL140C 236-248]
4270	LYMDKFIKLIPMRP [YDR479C 283-296]
25	LVSATAVPAESKP [YPL074W 405-417]
452	LRLKKSPLKVPSRP [YOR081C 655-668]
111	LTTNKETPANAKP [YAR044W 406-418]
54.2	LQHAAEPPVEKRP [YDR174W 207-219]
2220	MAKSQNKPKREKP [YDR381W 195-207]
140	LQVHRDQPREKRP [YDR176W 173-185]
273	LRNTTTYKSRPDRP [YBR289W 754-767]
82.6	LQQEQNTPPLPPKP [YCL008C 171-184]
114	LNSSVVVPKTTKP [YIL168W 85-97]
171	LSHRLWLYAAPKRP [YMR156C 126-139]
